# Test results reported in patent publication US20230002478A1.
# B1: 6-63 (Fc fusion)
# chain: EVQLVESGGGLVQPGGSLRLSCAASGQTFNMGWFRQAPGKEREFVAAIGSGGSTSYADSVKGRFTISADNSKNTAYLQMNSLKPEDTAVYYCWRLGNDYFDYWGQGTLVTVSS
# How the values were obtained:
# Assay in all cases: SPR
# Details in all cases: remark: other sources report otherwise
# [1] = target: SARS-CoV-2 S RBD (Y453F) (SARS-CoV-2), P0DTC2
# [2] = target: SARS-CoV-2 S RBD (K417N) (SARS-CoV-2), P0DTC2
# [3] = target: SARS-CoV-2 S1 (D614G) (SARS-CoV-2), P0DTC2
# [4] = target: SARS-CoV-2 S1 (HV69-70del, Y144del, N501Y, A570D, D614G, P681H) (SARS-CoV-2), P0DTC2
# [5] = target: SARS-CoV-2 S RBD (N501Y) (SARS-CoV-2), P0DTC2
binder,measurement,setting,value
B1,Kd,[1],5.4 nM
same,Kd,[2],14 nM
same,Kd,[3],95 nM
same,Kd,[4],80 nM
same,Kd,[5],3.8 nM
